{"source": "the nanobody polyreactivity screen of Harvey et al. (2022)"}
{"assay": "yeast display, Sf9 membrane polyspecificity reagent, FACS + sequencing; frameworks hold sequencing errors", "summary_of_the_method": "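Galactose-induced (36–48 hours) yeast carrying a synthetic nanobody display library were exposed to 10% biotinylated, detergent-solubilized Sf9 membrane reagent at 4 °C for 1 hour. FACS followed streptavidin microbead enrichment, using low and high (top ~1%) gates for expression (anti-HA) and reagent binding (streptavidin). Colony PCR, MiSeq 2 × 250 sequencing and CDR-length filtering followed. Labels for polyreactivity reflect the gate of origin.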"}
{"sequence": "PVQLVESGGGLVQAGGSLRLSCAASGFIFYLYAMGWYRQAPGKERELVASINVSGASTRYADSVKGRFTISRDNSKNTVYLQMKSLKPEDTAVYYCAAAITELYFEAYYYWGQGTQVTVSS", "polyreactivity (PSR sort gate)": "low polyreactivity"}
{"sequence": "QVQLVESGGGLVQAGGSLRLSCAASGINIKYNTMGWYRQAPGKERELVAAISSSGGTKYYADSVKGRFTISRDNAKNTVYLQMNSLKPEDTAVYYCAAGANAQRVPNGDYWGQGTQVTVSS", "polyreactivity (PSR sort gate)": "low polyreactivity"}
{"sequence": "QVQLVESGGGLVQAGGSLRLSCAASGRIFWLYAMGWYRQAPGKERELVAAITGIGGSTYYADSVKGRFTISRDNAKNTVYLQMNSLKPEDTAVYYCAARYPATYPSMGYWGQGTQVTVSS", "polyreactivity (PSR sort gate)": "low polyreactivity"}
{"sequence": "QVQLVESGGGLVQAGGSLRLSCAASGSIFAWNAMGWYRQAPGKERELVATIRSTGGSTYYADSVKGRFTISRDNAKNTVYLQMNSLKPEYTAVYYCAADYQAGDKLYDYWGQGTQVTVSS", "polyreactivity (PSR sort gate)": "low polyreactivity"}
{"sequence": "QVQLVESGGGLVQAGGSLRLSCAASGSTFSPYAMGWYRQAPGKERELVAAITGSTGSTYYAESVKGRFTISRDNAKNTVYLQMNSLKPEDTAVYYCAAVSSNARHVSRRRGYYWGQGTQVTVSS", "polyreactivity (PSR sort gate)": "high polyreactivity"}
{"sequence": "QVQLVESGGGLVQAGGSLRLSCAASGSTFKSYAMGWYRPAPGKERELVAAISSSGGSTYYADSVKGRFTISRDNAKNTVYLQMNSLKPEDTAVYYCNAVWVQGGIGNYWGQGTQVTVSS", "polyreactivity (PSR sort gate)": "low polyreactivity"}
{"sequence": "QVQLEESGGGLVQAGGSLRLSCAASGFIFLLNFMGWYRQAPAKDRELVAGNRSSTASTYYADSVKGRFTISRDNAKNTFYLEMNCLKPEDTAVSYCAAVSGWQYEYYSWGQGTQVTVSS", "polyreactivity (PSR sort gate)": "low polyreactivity"}
{"sequence": "QVQLVETGGRLVQAGGSLRLSCAASGSTFDIYVIGWSRQAPGKERELVAAISRVGNTSYADSVKGRFTISRDNAKNTVYLQMNSLIPEDTAVYYCAADAPSWYDRQYDYWGQGTQVTVSS", "polyreactivity (PSR sort gate)": "low polyreactivity"}
{"sequence": "QVQLVESGGGLVQAGGSLRLSCAASGRTFYHYTMGWYRQAPGKARELVAAITSGGSTYYADSVKGRFTISRDYAKNTVYLQMNSLKPEDTAVYYCARVRPLYHFSRYDDCGQGTQVTVSS", "polyreactivity (PSR sort gate)": "high polyreactivity"}
{"sequence": "QVQLVESGGGLVQAGGSLRLSCAASGVTFYYYAMGWYRQAPGKERELVASITSTDSTTYADSVKGRFTISRDNAKNTVYLQMNRLKPEDTAVYYCNRLYNHWYGGLDYWGQGTQVTVSS", "polyreactivity (PSR sort gate)": "high polyreactivity"}
{"sequence": "QVQLVESGGGLVQAGGSLRLSCAASGSTFDIYAMGWYRQAPGKEREMVAAIDFSGGSTYYADSVKGRFTISRDNAKNTVYLQMNSLKPEDTAVYYCAADVQKHFYSFGDERGFPFDYWGQATQVTVSS", "polyreactivity (PSR sort gate)": "low polyreactivity"}
{"sequence": "QVQLVESGGGLVQAGGSLRLSCAASGSILDHYAMGWYRQAPGKEREFVAAISIRGGSTYYADSVKGRFTISRDNAKNTVYLQMNSLKPEDTAVYYCNALSNYVYRRNDYWGQGTQVTVSS", "polyreactivity (PSR sort gate)": "low polyreactivity"}
{"sequence": "QVQLVESGGGLVQAGGSLRLSCSASGRTFLGYAMGWYRQAPGKERELVAAITIGGGTYADSVKGRFTISRDNAKNTVYLQMNSLKPEDTAVYYCAKPGWYDGDYWGQGTQVTVSS", "polyreactivity (PSR sort gate)": "low polyreactivity"}
{"sequence": "QDQLVESVGGLVQAGASLRLSCAATGRTFTTYAIGLYRPAPGKERELVAAITSGTSTNYADSVKGRFTISRDTAKNTVYVQMNSLKPEDTAVYYCAAPHGRGYEYWGQGTQVTVSS", "polyreactivity (PSR sort gate)": "high polyreactivity"}
{"sequence": "QVQLVESGGGLVQAGGSLRLSCAASGLIFGAYTMGWYRQAPGKERELVASITTSGDSTYYADSVKGRFTISRDNAKNTVYLQMNSLKPEDTAVYYCAAESTVGTDLGGDSWGQGTQVTVSS", "polyreactivity (PSR sort gate)": "high polyreactivity"}
{"sequence": "QDQHVETGGGLVQAGGSLRLSCAASGRTFKFYAMGWYRQAHGKERELVAAITSGGKTNYADSVKGRFTISRDNAKNTVYLQLNSLKPEDTAVYYCKADAGRLSNRYRLWTYGYWGQGTQVTVSS", "polyreactivity (PSR sort gate)": "low polyreactivity"}
{"sequence": "QVQLVESGVGLDKAGGSLRLISAASGRILWYNAMGLYRQAPGKEREFVARISISTASTYYADSVKGRFTISRDNAKNTVFLQMNSLKPEDTAVYYCAGKPWRTVPYYYWGQGTQVSVSS", "polyreactivity (PSR sort gate)": "high polyreactivity"}
{"sequence": "QVQLVESGGGLVQAGGSLRLSCAASGSIFGSNTMGWYRQAPGKEREFVAAISFSGGSTYDADSVKGRFTISRDNAKNTVYLQMNSLKPEDTAVYYCAARQRRVGTSFYSSRRDYWGQGTQVTVSS", "polyreactivity (PSR sort gate)": "high polyreactivity"}
{"sequence": "QVQLVESGGGLVQAGGSLRLSCAASGSIFRDYAMGWYRQAPGKEMELVAAISSDGSTYYADSVKGRFTISRDNAKNTVYLQMNSLKPEDTAVYYCNAAHVAHRFIGYTRWNYYYWGQGTQVTVSS", "polyreactivity (PSR sort gate)": "high polyreactivity"}
{"sequence": "QVQLVESGGGLVHAGGSLRLSCAASGRTFKKYAMGLYRQAPGKERELVAAISWSGGTTYYADSVKGRFTISRDNAKNTVYLQMNSLKPEDTAVYYCAARVSRTGDGYYYYWGQGTQVTVSS", "polyreactivity (PSR sort gate)": "high polyreactivity"}
{"sequence": "QVQLVESGGGLVQAGGSLRLSCAASGSTLYKYAMGWYRQAPGKEREFVAAISWSGSSTYYADSVKGRFTISRDNAKNTVYLQMNSLKPEDTAVYYCAALYTHYYWIEYDYWGQGTQVTVSS", "polyreactivity (PSR sort gate)": "low polyreactivity"}
{"sequence": "QVQLVESGGGLVQAGGSLRLSCAASGSIFYPNVMGWYRQAPGKERELVAAIRTSGGSTYYADSVKGRFTISRDNAKNTVYLQMNSLKPEDTAVYYCAADYIYVKYEYWGQGTQVTVSS", "polyreactivity (PSR sort gate)": "high polyreactivity"}
{"sequence": "QVQLVESGGGLVQAGGSLRLSCAASGFTFYQYAMGWYRQAPGKERELVAAITWNGGSTYYADSVKGRFTISRDNAKNTVYLQMNSLKPEDTAVYYCAAESPSKFDYDYWGQGTQVTVSS", "polyreactivity (PSR sort gate)": "high polyreactivity"}
{"sequence": "QVQLVESGGGLVQAGGSLRLSCAASGRTFSRNAMGWYRQAPGKERELVATISSSGVRTYYADSVKGRFTISRDNAKNTVYVQMNSLKPEDTGVYYCAAALRYFSAASGYDYWGQGTQVTVTS", "polyreactivity (PSR sort gate)": "low polyreactivity"}
{"sequence": "QVQLVESGGGLVQAGGSLRLSCAASGRILARNAMGWYRQAPGKERELVAVISYSGGRTYYADSVKGRFTISRDNAKNTVYLQMNSLKPEDTAVYYCAASRSFQGNRYDYWGQGTQVTVSS", "polyreactivity (PSR sort gate)": "high polyreactivity"}
{"sequence": "QVQLVESWGGLVQAGGSLRLSCADSGSTFNVNAMGWYSQAPGKESELVATITESGGRTYYADSVKGRFTISRDYAKNNVYLQMNSLKPEDTAVYYCARGDAWTFDYEPYDYWGQGTQVTVSS", "polyreactivity (PSR sort gate)": "low polyreactivity"}
{"sequence": "QVQLVESGGGLVQAGGSLRLSCAASGNIFYYYAMGWYRQAPGKERELVATNTSGGSTNYADSVKGRFTISRDNAKNTVYLQMNSLKPEDTAVYYCAADRRRTYYWLSSYFEGYYWGQGTQVTVSS", "polyreactivity (PSR sort gate)": "low polyreactivity"}
{"sequence": "QVQLVESGGGLVQAGGSLRLSCAASGSIFYWYDMGWYRHAPGKEWELVAAISFNVGSTYADSVKGRFTISRDNAKNTFYLQMNSLKPEDTAVYYCNVDAYRTSYEADVYYYTWIYYWGQGTQVTVSS", "polyreactivity (PSR sort gate)": "low polyreactivity"}
{"sequence": "QVQLVESGGGLVQAGGSLRLSCAASGSTFRYYAMGWYRQAPGKERELVAGITNGGRTNYADSVQGRFTISRDNAKNTVYLQMHSLKPEDTAVYYCAADLAWRRIGYNYWGQGTQVTVSS", "polyreactivity (PSR sort gate)": "high polyreactivity"}
{"sequence": "QVQLVESGGGLVQAGGSLRLSCAASGRILKYYAMGWYRQAPGKERELVAAISGSSGSTYYADSVKGRFTISRDNAKNTVYLQMNSLKPEDTAVYYCAAQGRDSTPHGYWGQGTQVTVSS", "polyreactivity (PSR sort gate)": "high polyreactivity"}
{"sequence": "QVQLVESGGGLVQAGGSLRLRCAASGLTFWGYPMGWYRQAPGKEREFVASITSGGGSTYYADSVKGRFTISRDNAKNTVYLQMNILNPEDTAVYYCNVDVHLYLYKSYTYRYYYWGQGTQVTVSS", "polyreactivity (PSR sort gate)": "low polyreactivity"}
{"sequence": "QVQLVESGGGLVQAGGSLRLSCAASGSNAMGCYRPAPGKDSELVAVITSRGGSTYYADSVKGRFTISRDNAKNTVYLQMNSLKPEDTAVYYCAKAWYVRGTWSVHVRYGYWGQGTQVTVSS", "polyreactivity (PSR sort gate)": "high polyreactivity"}
{"sequence": "QVQLVDSCGVLVQAGGSLRLSCAASGITFNLYAMGWYRQAPGKERELVAAISNVGSTKYADSVKGRFTISRDNAKNTVYLQMNSLKPEDTAVYYCAAAQWAYWLLYNYWGQGTQVTVSS", "polyreactivity (PSR sort gate)": "low polyreactivity"}
{"sequence": "QVQLVESGGGLVQAGGSLRLSCAASGRIFDGYAMGWYRQAPGKERELVASISYDGGSTYYADSVQGRFTISRDNAKNTVYLQMNSLKPEDTAVYYCAAVYRRRSYTFYYWGQGTQVTVSS", "polyreactivity (PSR sort gate)": "high polyreactivity"}
{"sequence": "QVQLVESGGGLGQAGGRLRLSCAASGRTFAQNAMGWNRKAPGKERELVAAITSSGGSTYYADSVKGRFTISRDNAKNTVYLQMNSLKPEDTAVYYCAADRHYGTEYAYDYWGQGTQVTVSS", "polyreactivity (PSR sort gate)": "low polyreactivity"}
{"sequence": "QVQLVESGGGLVQAGGSLRLSCAASVSIYPDYAMGWYRQAPGKERELVAAISRSGGSTYYADSVKGRFTISRDNAKNTVYLQMNSLKREDTAVYDCNARPGSRYYGYRLYYYWGQGTQVTVSS", "polyreactivity (PSR sort gate)": "high polyreactivity"}
{"sequence": "QVQLVESGGGLVQAGGSLRLSCAASGLIFQYYAMGWYRPAPGKERELVAAISSDGNTYYADSVKGRFTISRDNAKNTVYLQMNSLKPEDTAVYYCAADWYIAYSEYGYWGQGTKVTVSS", "polyreactivity (PSR sort gate)": "low polyreactivity"}
{"sequence": "QVQLVESGGGLVQAGGRLRLSCAASGRTFRLYAMGWYRQAPGKERELVAAINYSDGSTYYADSVKGRFTISRDIAKNTVYLQMNSLKPEDSAVSYCAADLQSGYTIPTSIVEYHPFDYWGQGTQVTVSS", "polyreactivity (PSR sort gate)": "low polyreactivity"}
{"sequence": "QVQLVESGGGLVQAGGSLRLSCAASGYIFDLNAMGWSRQAPGKERELVAANSTGGGTYYADSVKGRFTISRDNAKNTVYLQMNILKPEDTAVYYCAADWGYWYAEYDYWGQGTQVTVSS", "polyreactivity (PSR sort gate)": "low polyreactivity"}
{"sequence": "QVQLVESGGGLVQAGGSLRLSCAASGIILIHNAMGWYRQARGKERELVAAISTRGGRTYYADSVKGRFTISRDNAKNTVYLQMNSLKPEDTAVYYCAAYRTTPYRDYKMDYLGQGTQVTVSS", "polyreactivity (PSR sort gate)": "high polyreactivity"}
